In the supplement of paper PMC10567573:

B1: ZNF232 (parent)
chain: HSGEKPFICKECGKAYGWCSELIR

Variants of: B1
Experiment: protein stability index of a GFP-peptide fusion (GPS, HEK-293T) (PSI 1-6); higher = more stable
Conditions: c terminus: a fixed tail appended
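Further: lentivirally expressed fusions sorted by FACS into six bins by GFP to DsRed ratio, PSI derived from sequencing read proportions per bin multiplied by bin number.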

| Variant | protein stability index |
| --- | --- |
| HSGEHPFICKECGKAYGWCSELIR [K5H] | 1.84 |
| HSGESPFICKECGKAYGWCSELIR [K5S] | 2.21 |
| HSGEPPFICKECGKAYGWCSELIR [K5P] | 2.63 |
| HSGETPFICKECGKAYGWCSELIR [K5T] | 1.86 |
| HSGEDPFICKECGKAYGWCSELIR [K5D] | 2.17 |
| HSGEIPFICKECGKAYGWCSELIR [K5I] | 2.21 |
| HSGEQPFICKECGKAYGWCSELIR [K5Q] | 2.12 |
| HSGEAPFICKECGKAYGWCSELIR [K5A] | 2.1 |
| HSGEFPFICKECGKAYGWCSELIR [K5F] | 1.65 |
| HSGELPFICKECGKAYGWCSELIR [K5L] | 1.65 |
| HSGEWPFICKECGKAYGWCSELIR [K5W] | 1.96 |
| HSGERPFICKECGKAYGWCSELIR [K5R] | 2.57 |
| HSGEEPFICKECGKAYGWCSELIR [K5E] | 3.4 |
| HSGEVPFICKECGKAYGWCSELIR [K5V] | 2.08 |
| HSGECPFICKECGKAYGWCSELIR [K5C] | 1.8 |
| HSGEYPFICKECGKAYGWCSELIR [K5Y] | 1.74 |
| HSGEGPFICKECGKAYGWCSELIR [K5G] | 2.38 |
| HSGENPFICKECGKAYGWCSELIR [K5N] | 2.23 |
| HSGEKPFICKHCGKAYGWCSELIR [E11H] | 2.24 |
| HSGEKPFICKSCGKAYGWCSELIR [E11S] | 2.31 |
| HSGEKPFICKYCGKAYGWCSELIR [E11Y] | 1.98 |
| HSGEKPFICKVCGKAYGWCSELIR [E11V] | 2.04 |
| HSGEKPFICKGCGKAYGWCSELIR [E11G] | 2.19 |
| HSGEKPFICKACGKAYGWCSELIR [E11A] | 2.22 |

| Variant | protein stability index |
| --- | --- |
| HSGEKPFICKKCGKAYGWCSELIR [E11K] | 1.62 |
| HSGEKPFICKWCGKAYGWCSELIR [E11W] | 2.14 |
| HSGEKPFICKICGKAYGWCSELIR [E11I] | 2.27 |
| HSGEKPFICKDCGKAYGWCSELIR [E11D] | 1.88 |
| HSGEKPFICKFCGKAYGWCSELIR [E11F] | 1.77 |
| HSGEKPFICKPCGKAYGWCSELIR [E11P] | 1.58 |
| HSGEKPFICKTCGKAYGWCSELIR [E11T] | 2.48 |
| HSGEKPFICKQCGKAYGWCSELIR [E11Q] | 1.52 |
| HSGEKPFICKLCGKAYGWCSELIR [E11L] | 1.7 |
| HSGEKPFICKRCGKAYGWCSELIR [E11R] | 2.65 |
| HSGEKPFICKCCGKAYGWCSELIR [E11C] | 2.3 |
| HSGEKPFICKMCGKAYGWCSELIR [E11M] | 2.02 |
| HSGEKPFICKNCGKAYGWCSELIR [E11N] | 1.61 |
| HSGEKPFICYECGKAYGWCSELIR [K10Y] | 1.99 |
| HSGEKPFICFECGKAYGWCSELIR [K10F] | 1.9 |
| HSGEKPFICAECGKAYGWCSELIR [K10A] | 1.68 |
| HSGEKPFICNECGKAYGWCSELIR [K10N] | 1.82 |
| HSGEKPFICQECGKAYGWCSELIR [K10Q] | 2.01 |
| HSGEKPFICPECGKAYGWCSELIR [K10P] | 2.07 |
| HSGEKPFICMECGKAYGWCSELIR [K10M] | 1.96 |
| HSGEKPFICGECGKAYGWCSELIR [K10G] | 1.96 |
| HSGEKPFICWECGKAYGWCSELIR [K10W] | 1.84 |
| HSGEKPFICHECGKAYGWCSELIR [K10H] | 1.75 |
| HSGEKPFICLECGKAYGWCSELIR [K10L] | 1.92 |

| Variant | protein stability index |
| --- | --- |
| HSGEKPFICCECGKAYGWCSELIR [K10C] | 1.7 |
| HSGEKPFICSECGKAYGWCSELIR [K10S] | 2.09 |
| HSGEKPFICDECGKAYGWCSELIR [K10D] | 1.66 |
| HSGEKPFICRECGKAYGWCSELIR [K10R] | 1.76 |
| HSGEKPFICIECGKAYGWCSELIR [K10I] | 2.01 |
| HSGEKPFICVECGKAYGWCSELIR [K10V] | 1.82 |
| HSGEKPFICTECGKAYGWCSELIR [K10T] | 1.66 |
| HSGEKPFICEECGKAYGWCSELIR [K10E] | 2.33 |
| HSGEKPFSCKECGKAYGWCSELIR [I8S] | 2.28 |
| HSGEKPFKCKECGKAYGWCSELIR [I8K] | 2.09 |
| HSGEKPFYCKECGKAYGWCSELIR [I8Y] | 1.74 |
| HSGEKPFVCKECGKAYGWCSELIR [I8V] | 1.58 |
| HSGEKPFWCKECGKAYGWCSELIR [I8W] | 1.69 |
| HSGEKPFNCKECGKAYGWCSELIR [I8N] | 2.58 |
| HSGEKPFTCKECGKAYGWCSELIR [I8T] | 1.23 |
| HSGEKPFACKECGKAYGWCSELIR [I8A] | 1.7 |
| HSGEKPFMCKECGKAYGWCSELIR [I8M] | 2.38 |
| HSGEKPFFCKECGKAYGWCSELIR [I8F] | 1.51 |
| HSGEKPFGCKECGKAYGWCSELIR [I8G] | 2.01 |
| HSGEKPFHCKECGKAYGWCSELIR [I8H] | 1.79 |
| HSGEKPFCCKECGKAYGWCSELIR [I8C] | 2.46 |
| HSGEKPFLCKECGKAYGWCSELIR [I8L] | 1.75 |
| HSGEKPFRCKECGKAYGWCSELIR [I8R] | 1.44 |
| HSGEKPFQCKECGKAYGWCSELIR [I8Q] | 2.02 |

| Variant | protein stability index |
| --- | --- |
| HSGEKPFDCKECGKAYGWCSELIR [I8D] | 2.07 |
| HSGEKPFECKECGKAYGWCSELIR [I8E] | 2.22 |
| HSGEKPFPCKECGKAYGWCSELIR [I8P] | 1.81 |
| HSGEKPAICKECGKAYGWCSELIR [F7A] | 2.22 |
| HSGEKPPICKECGKAYGWCSELIR [F7P] | 2.11 |
| HSGEKPYICKECGKAYGWCSELIR [F7Y] | 2.52 |
| HSGEKPSICKECGKAYGWCSELIR [F7S] | 2.79 |
| HSGEKPHICKECGKAYGWCSELIR [F7H] | 2.73 |
| HSGEKPLICKECGKAYGWCSELIR [F7L] | 2.05 |
| HSGEKPIICKECGKAYGWCSELIR [F7I] | 2.56 |
| HSGEKPWICKECGKAYGWCSELIR [F7W] | 2.09 |
| HSGEKPQICKECGKAYGWCSELIR [F7Q] | 2.08 |
| HSGEKPTICKECGKAYGWCSELIR [F7T] | 2 |
| HSGEKPGICKECGKAYGWCSELIR [F7G] | 2.52 |
| HSGEKPNICKECGKAYGWCSELIR [F7N] | 2.24 |
| HSGEKPKICKECGKAYGWCSELIR [F7K] | 2.54 |
| HSGEKPDICKECGKAYGWCSELIR [F7D] | 2.29 |
| HSGEKPEICKECGKAYGWCSELIR [F7E] | 2.7 |
| HSGEKPRICKECGKAYGWCSELIR [F7R] | 2.12 |
| HSGEKPVICKECGKAYGWCSELIR [F7V] | 1.89 |
| HSGEKPMICKECGKAYGWCSELIR [F7M] | 2.1 |
| HSGEKPCICKECGKAYGWCSELIR [F7C] | 1.73 |
